Data from US20120035244A1 (REGENTS OF THE UNIVERSITY OF MICHIGAN, published 2012).

B1: ERG, TMPRSS2:ERG gene fusion product (TMPRSS2 exon 1 fused to ERG1 exon 2) (other, human, UniProt P11308 33-479, looked up)
chain: MTASSSSDYGQTSKMSPRVPQQDWLSQPPARVTIKMECNPSQVNGSRNSPDECSVAKGGKMVGSPDTVGMNYGSYMEEKHMPPPNMTTNERRVIVPADPTLWSTDHVRQWLEWAVKEYGLPDVNILLFQNIDGKELCKMTKDDFQRLTPSYNADILLSHLHYLRETPLPHLTSDDVDKALQNSPRLMHARNTGGAAFIFPNTSVYPEATQRITTRPDLPYEPPRRSAWTGHGHPTPQSKAAQPSPSTVPKTEDQRPQLDPYQILGPTSSRLANPGSGQIQLWQFLLELLSDSSNSSCITWEGTNGEFKMTDPDEVARRWGERKSKPNMNYDKLSRALRYYYDKNIMTKVHGKRYAYKFDFHGIAQALQPHPPESSLYKYPSDLPYMGSYHAHPQKMNFVAPHPPALPVTSSSFFAAPNPYWNSPTGGIYPNTRLPTSHMPSHLGTYY
notes: Untagged fusion product: endogenous in VCaP cells and in ERG fusion-positive human prostate cancer tissues; no tag stated; also called TMPRSS-ERG gene fusion product; endogenous gene fusion product

Experiments:
[1] = target: ATR (human, UniProt Q13535 1-2644); experiment: ERG immunoprecipitation from VCaP cells, Western blot (FIG. 8b)
[2] = target: B1; experiment: ERG immunoprecipitation from VCaP cells, Western blot (FIG. 1b)

ATR, sequence (Q13535 whole entry): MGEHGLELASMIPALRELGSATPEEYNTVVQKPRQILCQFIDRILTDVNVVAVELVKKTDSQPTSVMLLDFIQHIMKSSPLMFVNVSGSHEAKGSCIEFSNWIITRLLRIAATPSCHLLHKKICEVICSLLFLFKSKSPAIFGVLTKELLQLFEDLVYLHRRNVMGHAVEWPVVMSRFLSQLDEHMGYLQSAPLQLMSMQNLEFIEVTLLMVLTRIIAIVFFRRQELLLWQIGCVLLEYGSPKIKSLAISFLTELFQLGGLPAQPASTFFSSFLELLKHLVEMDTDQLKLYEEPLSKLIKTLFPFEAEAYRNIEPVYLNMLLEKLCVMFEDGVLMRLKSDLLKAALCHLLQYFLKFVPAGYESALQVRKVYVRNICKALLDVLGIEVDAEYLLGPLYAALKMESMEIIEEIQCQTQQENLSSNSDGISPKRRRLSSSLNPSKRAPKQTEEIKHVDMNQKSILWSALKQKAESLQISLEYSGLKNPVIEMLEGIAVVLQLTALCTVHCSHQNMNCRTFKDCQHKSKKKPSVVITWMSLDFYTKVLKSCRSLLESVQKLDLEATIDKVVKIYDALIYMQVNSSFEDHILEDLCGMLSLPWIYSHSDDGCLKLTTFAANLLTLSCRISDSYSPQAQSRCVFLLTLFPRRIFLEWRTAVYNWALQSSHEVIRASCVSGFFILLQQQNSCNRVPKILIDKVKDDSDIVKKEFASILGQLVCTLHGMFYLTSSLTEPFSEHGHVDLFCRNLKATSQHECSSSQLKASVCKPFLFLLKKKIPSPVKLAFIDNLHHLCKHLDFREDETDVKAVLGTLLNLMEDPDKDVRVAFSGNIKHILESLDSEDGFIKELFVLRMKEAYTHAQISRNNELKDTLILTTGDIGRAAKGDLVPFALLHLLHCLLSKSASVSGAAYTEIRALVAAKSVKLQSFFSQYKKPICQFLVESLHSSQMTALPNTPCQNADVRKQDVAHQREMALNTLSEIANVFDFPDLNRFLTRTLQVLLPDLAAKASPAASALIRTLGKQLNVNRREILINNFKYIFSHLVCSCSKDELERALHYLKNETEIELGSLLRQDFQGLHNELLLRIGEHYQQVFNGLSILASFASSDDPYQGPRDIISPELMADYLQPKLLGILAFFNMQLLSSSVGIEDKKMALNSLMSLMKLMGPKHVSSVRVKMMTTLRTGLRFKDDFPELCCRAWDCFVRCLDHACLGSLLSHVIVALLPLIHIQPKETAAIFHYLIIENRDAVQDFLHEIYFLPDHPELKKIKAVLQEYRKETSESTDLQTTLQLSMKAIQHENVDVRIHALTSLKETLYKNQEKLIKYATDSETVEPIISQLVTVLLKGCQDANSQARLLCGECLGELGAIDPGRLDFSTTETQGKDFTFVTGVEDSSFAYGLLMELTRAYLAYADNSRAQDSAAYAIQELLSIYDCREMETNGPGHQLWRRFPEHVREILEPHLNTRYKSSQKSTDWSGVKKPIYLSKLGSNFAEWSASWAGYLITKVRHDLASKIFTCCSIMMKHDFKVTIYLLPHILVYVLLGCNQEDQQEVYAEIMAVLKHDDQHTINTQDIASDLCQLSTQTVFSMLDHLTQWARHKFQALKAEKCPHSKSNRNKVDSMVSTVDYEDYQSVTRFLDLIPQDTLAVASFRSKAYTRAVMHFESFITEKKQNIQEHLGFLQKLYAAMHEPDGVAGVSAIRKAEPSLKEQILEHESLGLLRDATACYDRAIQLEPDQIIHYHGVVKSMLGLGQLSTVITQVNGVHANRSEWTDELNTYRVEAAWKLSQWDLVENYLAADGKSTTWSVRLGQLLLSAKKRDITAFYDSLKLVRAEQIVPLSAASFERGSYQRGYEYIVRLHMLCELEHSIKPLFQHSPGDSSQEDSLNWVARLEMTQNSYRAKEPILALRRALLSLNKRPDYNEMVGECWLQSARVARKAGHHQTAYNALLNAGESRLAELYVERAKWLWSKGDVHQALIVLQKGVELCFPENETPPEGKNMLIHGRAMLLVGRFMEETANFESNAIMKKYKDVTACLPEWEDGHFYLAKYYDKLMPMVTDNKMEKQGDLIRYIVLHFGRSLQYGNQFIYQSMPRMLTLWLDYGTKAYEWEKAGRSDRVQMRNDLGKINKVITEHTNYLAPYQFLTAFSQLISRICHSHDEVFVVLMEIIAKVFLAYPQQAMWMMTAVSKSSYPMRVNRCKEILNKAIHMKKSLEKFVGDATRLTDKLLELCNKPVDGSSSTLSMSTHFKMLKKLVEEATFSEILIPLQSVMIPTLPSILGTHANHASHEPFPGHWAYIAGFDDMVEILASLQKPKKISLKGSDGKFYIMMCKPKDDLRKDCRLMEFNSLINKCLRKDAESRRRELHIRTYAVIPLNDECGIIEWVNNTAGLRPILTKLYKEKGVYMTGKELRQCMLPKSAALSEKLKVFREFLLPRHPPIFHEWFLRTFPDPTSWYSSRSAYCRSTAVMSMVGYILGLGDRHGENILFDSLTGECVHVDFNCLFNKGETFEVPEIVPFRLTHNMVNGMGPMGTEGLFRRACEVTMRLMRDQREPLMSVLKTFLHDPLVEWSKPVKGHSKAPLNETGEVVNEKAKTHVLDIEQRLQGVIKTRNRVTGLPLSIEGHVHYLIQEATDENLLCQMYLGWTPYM

Binder	binding result [1]	binding result [2]
B1	no binding	
XRCC4 (other, human, UniProt Q13426 1-336, looked up) MERKISRIHLVSEPSITHFLQVSWEKTLESGFVITLTDGHSAWTGTVSESEISQEADDMAMEKGKYVGELRKALLSGAGPADVYTFNFSKESCYFFFEKNLKDVSFRLGSFNLEKVENPAEVIRELICYCLDTIAENQAKNEHLQKENERLLRDWNDVQGRFEKCVSAKEALETDLYKRFILVLNEKKTKIRSLHNKLLNAAQEREKDIKQEGETAICSEMTADRDPVYDESTDEESENQTDLSGLASAAVSKDDSIISSLDVTDIAPSRKRRQRMQRNLGTEPKMAPQENQLQEKENSRPDSSLPETSKKEHISAENMSLETLRNSSPEDLFDEI		no binding
